Laboratory results as given in patent publication US20240360227A1.

Assays:
[1] = target: Recombinant human his-tagged IGF R extracellular domain protein (human) (UniProt P08069); test: SPR, Ab captured via anti-huIgG Fc, pH 7.4
[2] = target: Recombinant human his-tagged IGF R extracellular domain protein (human) (UniProt P08069); test: SPR, Ab captured via anti-huIgG Fc, dissociation at pH 6

| Kd [1] [nM] | koff [1] [s⁻¹] | kon [1] [M⁻¹ s⁻¹] | Kd [2] [nM] | koff [2] [s⁻¹] | kon [2] [M⁻¹ s⁻¹] | Binder |
| --- | --- | --- | --- | --- | --- | --- |
| 0.28 | 2.65e-05 | 94700 | 0.299 | 4.34e-05 | 145000 | VRDN-02061 (antibody, V domains shown) VH: QVQLQESGPGLVKPSETLSLTCTVSGYSITGGYLWNWIRQPPGKGLEWIGYISYDGTNNYKPSLKDRVTISRDTSKNQFSLKLSSVTAADTAVYYCARHGRVFFDYWGQGTLVTVSS VL: DIVMTQSPLSLPVTPGEPASISCRSHQSIVHSNGNTYLQWYLQKPGQSPQLLIYKVSNRLYGVPDRFSGSGSGTDFTLKISRVEAEDVGVYYCFQGSHVPWTFGQGTKVEIK |
| 0.237 | 2.76e-05 | 116000 | 0.188 | 5.52e-05 | 294000 | VRDN-02075 (antibody, V domains shown) VH: QVQLQESGPGLVKPSETLSLTCTVSGYSITGGYLWNWIRQPPGKGLEWIGYISYHGTNNYKPSLKDRVTISRDTSKNQFSLKLSSVTAADTAVYYCARHGRVFFDYWGQGTLVTVSS VL: DIVMTQSPLSLPVTPGEPASISCRSHQSIVHSNGNTYLQWYLQKPGQSPQLLIYKVSNRLYGVPDRFSGSGSGTDFTLKISRVEAEDVGVYYCFQGSHVHWTFGQGTKVEIK |
| 0.261 | 3.13e-05 | 120000 | 0.267 | 4.77e-05 | 179000 | VRDN-02073 (antibody, V domains shown) VH: QVQLQESGPGLVKPSETLSLTCTVSGYSITGGYLWNWIRQPPGKGLEWIGYIHYDGTNNYKPSLKDRVTISRDTSKNQFSLKLSSVTAADTAVYYCARHGRVFFDYWGQGTLVTVSS VL: DIVMTQSPLSLPVTPGEPASISCRSHQSIVHSNGNTYLQWYLQKPGQSPQLLIYKVSNRLYGVPDRFSGSGSGTDFTLKISRVEAEDVGVYYCFQGSHVPHTFGQGTKVEIK |
| 0.225 | 2.13e-05 | 94300 | 0.166 | 2.82e-05 | 170000 | VRDN-02062 (antibody, V domains shown) VH: QVQLQESGPGLVKPSETLSLTCTVSGYSITGGYLWNWIRQPPGKGLEWIGYIHYDGTNNYKPSLKDRVTISRDTSKNQFSLKLSSVTAADTAVYYCARYGRVFFDYWGQGTLVTVSS VL: DIVMTQSPLSLPVTPGEPASISCRSSQSIVHSNGNTYLQWYLQKPGQSPQLLIYKVSNRLYGVPDRFSGSGSGTDFTLKISRVEAEDVGVYYCFHGSHVPWTFGQGTKVEIK |
| 0.22 | 2.54e-05 | 116000 | 0.232 | 4.83e-05 | 208000 | VRDN-02065 (antibody, V domains shown) VH: QVQLQESGPGLVKPSETLSLTCTVSGYSITGGYLWNWIRQPPGKGLEWIGYIHYDGTNNYKPSLKDRVTISRDTSKNQFSLKLSSVTAADTAVYYCARYGRVFFDYWGQGTLVTVSS VL: DIVMTQSPLSLPVTPGEPASISCRSSQSIVHSNGNTYLQWYLQKPGQSPQLLIYKVSNRLYGVPDRFSGSGSGTDFTLKISRVEAEDVGVYYCFQGSHVHWTFGQGTKVEIK |
| 0.235 | 2.48e-05 | 106000 | 0.145 | 2.27e-05 | 157000 | VRDN-02064 (antibody, V domains shown) VH: QVQLQESGPGLVKPSETLSLTCTVSGYSITGGYLWNWIRQPPGKGLEWIGYISYDGTNNYKPSLKDRVTISRDTSKNQFSLKLSSVTAADTAVYYCARHGRVFFDYWGQGTLVTVSS VL: DIVMTQSPLSLPVTPGEPASISCRSSQSIVHSNGNTYLQWYLQKPGQSPQLLIYKVSNRLYGVPDRFSGSGSGTDFTLKISRVEAEDVGVYYCFHGSHVPWTFGQGTKVEIK |
| 0.278 | 3.12e-05 | 112000 | 0.296 | 5.14e-05 | 174000 | VRDN-02066 (antibody, V domains shown) VH: QVQLQESGPGLVKPSETLSLTCTVSGYSITGGYLWNWIRQPPGKGLEWIGYISYHGTNNYKPSLKDRVTISRDTSKNQFSLKLSSVTAADTAVYYCARYGRVFFDYWGQGTLVTVSS VL: DIVMTQSPLSLPVTPGEPASISCRSSQSIVHSNGNTYLQWYLQKPGQSPQLLIYKVSNRLYGVPDRFSGSGSGTDFTLKISRVEAEDVGVYYCFQGSHVHWTFGQGTKVEIK |
| 0.322 | 3.38e-05 | 105000 | 0.335 | 5.29e-05 | 158000 | VRDN-02070 (antibody, V domains shown) VH: QVQLQESGPGLVKPSETLSLTCTVSGYSITGGYLWNWIRQPPGKGLEWIGYISYDGTNNYKPSLKDRVTISRDTSKNQFSLKLSSVTAADTAVYYCARHGRVFFDYWGQGTLVTVSS VL: DIVMTQSPLSLPVTPGEPASISCRSSQSIVHSNGNTYLQWYLQKPGQSPQLLIYKVSNRLYGVPDRFSGSGSGTDFTLKISRVEAEDVGVYYCFQGSHVPHTFGQGTKVEIK |
| 1.08 | 8.49e-05 | 78500 | 1.1 | 0.000101 | 92300 | VRDN-02006 (antibody, V domains shown) VH: QVQLQESGPGLVKPSETLSLTCTVSGYSITHGYLWNWIRQPPGKGLEWIGYISYDGTNNYKPSLKDRVTISRDTSKNQFSLKLSSVTAADTAVYYCARYGRVFFDYWGQGTLVTVSS VL: DIVMTQSPLSLPVTPGEPASISCRSSQSIVHSNGNTYLQWYLQKPGQSPQLLIYKVSNRLYGVPDRFSGSGSGTDFTLKISRVEAEDVGVYYCFQGSHVPWTFGQGTKVEIK |
| 0.137 | 1.52e-05 | 111000 | 0.325 | 5.59e-05 | 172000 | VRDN-02069 (antibody, V domains shown) VH: QVQLQESGPGLVKPSETLSLTCTVSGYSITGGYLWNWIRQPPGKGLEWIGYISYHGTNNYKPSLKDRVTISRDTSKNQFSLKLSSVTAADTAVYYCARYGRVFFDYWGQGTLVTVSS VL: DIVMTQSPLSLPVTPGEPASISCRSSQSIVHSNGNTYLQWYLQKPGQSPQLLIYKVSNRLYGVPDRFSGSGSGTDFTLKISRVEAEDVGVYYCFQGSHVPHTFGQGTKVEIK |
| 0.19 | 2.11e-05 | 111000 | 0.284 | 3.97e-05 | 140000 | VRDN-02063 (antibody, V domains shown) VH: QVQLQESGPGLVKPSETLSLTCTVSGYSITGGYLWNWIRQPPGKGLEWIGYISYHGTNNYKPSLKDRVTISRDTSKNQFSLKLSSVTAADTAVYYCARYGRVFFDYWGQGTLVTVSS VL: DIVMTQSPLSLPVTPGEPASISCRSSQSIVHSNGNTYLQWYLQKPGQSPQLLIYKVSNRLYGVPDRFSGSGSGTDFTLKISRVEAEDVGVYYCFHGSHVPWTFGQGTKVEIK |
| 12.8 | 0.000743 | 58000 | 10.2 | 0.00188 | 184000 | VRDN-02007 (antibody, V domains shown) VH: QVQLQESGPGLVKPSETLSLTCTVSGYSITGHYLWNWIRQPPGKGLEWIGYISYDGTNNYKPSLKDRVTISRDTSKNQFSLKLSSVTAADTAVYYCARYGRVFFDYWGQGTLVTVSS VL: DIVMTQSPLSLPVTPGEPASISCRSSQSIVHSNGNTYLQWYLQKPGQSPQLLIYKVSNRLYGVPDRFSGSGSGTDFTLKISRVEAEDVGVYYCFQGSHVPWTFGQGTKVEIK |
| 0.249 | 2.87e-05 | 115000 | 0.376 | 6.53e-05 | 174000 | VRDN-02068 (antibody, V domains shown) VH: QVQLQESGPGLVKPSETLSLTCTVSGYSITGGYLWNWIRQPPGKGLEWIGYIHYDGTNNYKPSLKDRVTISRDTSKNQFSLKLSSVTAADTAVYYCARYGRVFFDYWGQGTLVTVSS VL: DIVMTQSPLSLPVTPGEPASISCRSSQSIVHSNGNTYLQWYLQKPGQSPQLLIYKVSNRLYGVPDRFSGSGSGTDFTLKISRVEAEDVGVYYCFQGSHVPHTFGQGTKVEIK |
| 0.25 | 2.75e-05 | 110000 | 0.31 | 5.44e-05 | 175000 | VRDN-02067 (antibody, V domains shown) VH: QVQLQESGPGLVKPSETLSLTCTVSGYSITGGYLWNWIRQPPGKGLEWIGYISYDGTNNYKPSLKDRVTISRDTSKNQFSLKLSSVTAADTAVYYCARHGRVFFDYWGQGTLVTVSS VL: DIVMTQSPLSLPVTPGEPASISCRSSQSIVHSNGNTYLQWYLQKPGQSPQLLIYKVSNRLYGVPDRFSGSGSGTDFTLKISRVEAEDVGVYYCFQGSHVHWTFGQGTKVEIK |
| 0.103 | 1.09e-05 | 105000 | 0.352 | 6.64e-05 | 189000 | VRDN-02071 (antibody, V domains shown) VH: QVQLQESGPGLVKPSETLSLTCTVSGYSITGGYLWNWIRQPPGKGLEWIGYIHYDGTNNYKPSLKDRVTISRDTSKNQFSLKLSSVTAADTAVYYCARHGRVFFDYWGQGTLVTVSS VL: DIVMTQSPLSLPVTPGEPASISCRSHQSIVHSNGNTYLQWYLQKPGQSPQLLIYKVSNRLYGVPDRFSGSGSGTDFTLKISRVEAEDVGVYYCFHGSHVPWTFGQGTKVEIK |
| 0.301 | 3.98e-05 | 132000 | 0.25 | 5.81e-05 | 232000 | VRDN-02074 (antibody, V domains shown) VH: QVQLQESGPGLVKPSETLSLTCTVSGYSITGGYLWNWIRQPPGKGLEWIGYISYHGTNNYKPSLKDRVTISRDTSKNQFSLKLSSVTAADTAVYYCARHGRVFFDYWGQGTLVTVSS VL: DIVMTQSPLSLPVTPGEPASISCRSHQSIVHSNGNTYLQWYLQKPGQSPQLLIYKVSNRLYGVPDRFSGSGSGTDFTLKISRVEAEDVGVYYCFHGSHVPWTFGQGTKVEIK |
| 0.281 | 3.57e-05 | 127000 | 0.269 | 5.3e-05 | 197000 | VRDN-02072 (antibody, V domains shown) VH: QVQLQESGPGLVKPSETLSLTCTVSGYSITGGYLWNWIRQPPGKGLEWIGYIHYDGTNNYKPSLKDRVTISRDTSKNQFSLKLSSVTAADTAVYYCARHGRVFFDYWGQGTLVTVSS VL: DIVMTQSPLSLPVTPGEPASISCRSHQSIVHSNGNTYLQWYLQKPGQSPQLLIYKVSNRLYGVPDRFSGSGSGTDFTLKISRVEAEDVGVYYCFQGSHVHWTFGQGTKVEIK |
